The values below come from patent US20210063414A1, “METHODS FOR PREVENTING AND/OR TREATING BONE LOSS CONDITIONS BY MODULATING IRISIN” (Dana-Farber Cancer Institute, Inc., priority 2018, published 2021).

Assay [1] deals with T1, MLO-Y4 cell surface proteins (Mus musculus, UniProt P70388).
T1 construct: endogenous in cells; host or cells: MLO-Y4
T1 sequence (P70388 1-1312): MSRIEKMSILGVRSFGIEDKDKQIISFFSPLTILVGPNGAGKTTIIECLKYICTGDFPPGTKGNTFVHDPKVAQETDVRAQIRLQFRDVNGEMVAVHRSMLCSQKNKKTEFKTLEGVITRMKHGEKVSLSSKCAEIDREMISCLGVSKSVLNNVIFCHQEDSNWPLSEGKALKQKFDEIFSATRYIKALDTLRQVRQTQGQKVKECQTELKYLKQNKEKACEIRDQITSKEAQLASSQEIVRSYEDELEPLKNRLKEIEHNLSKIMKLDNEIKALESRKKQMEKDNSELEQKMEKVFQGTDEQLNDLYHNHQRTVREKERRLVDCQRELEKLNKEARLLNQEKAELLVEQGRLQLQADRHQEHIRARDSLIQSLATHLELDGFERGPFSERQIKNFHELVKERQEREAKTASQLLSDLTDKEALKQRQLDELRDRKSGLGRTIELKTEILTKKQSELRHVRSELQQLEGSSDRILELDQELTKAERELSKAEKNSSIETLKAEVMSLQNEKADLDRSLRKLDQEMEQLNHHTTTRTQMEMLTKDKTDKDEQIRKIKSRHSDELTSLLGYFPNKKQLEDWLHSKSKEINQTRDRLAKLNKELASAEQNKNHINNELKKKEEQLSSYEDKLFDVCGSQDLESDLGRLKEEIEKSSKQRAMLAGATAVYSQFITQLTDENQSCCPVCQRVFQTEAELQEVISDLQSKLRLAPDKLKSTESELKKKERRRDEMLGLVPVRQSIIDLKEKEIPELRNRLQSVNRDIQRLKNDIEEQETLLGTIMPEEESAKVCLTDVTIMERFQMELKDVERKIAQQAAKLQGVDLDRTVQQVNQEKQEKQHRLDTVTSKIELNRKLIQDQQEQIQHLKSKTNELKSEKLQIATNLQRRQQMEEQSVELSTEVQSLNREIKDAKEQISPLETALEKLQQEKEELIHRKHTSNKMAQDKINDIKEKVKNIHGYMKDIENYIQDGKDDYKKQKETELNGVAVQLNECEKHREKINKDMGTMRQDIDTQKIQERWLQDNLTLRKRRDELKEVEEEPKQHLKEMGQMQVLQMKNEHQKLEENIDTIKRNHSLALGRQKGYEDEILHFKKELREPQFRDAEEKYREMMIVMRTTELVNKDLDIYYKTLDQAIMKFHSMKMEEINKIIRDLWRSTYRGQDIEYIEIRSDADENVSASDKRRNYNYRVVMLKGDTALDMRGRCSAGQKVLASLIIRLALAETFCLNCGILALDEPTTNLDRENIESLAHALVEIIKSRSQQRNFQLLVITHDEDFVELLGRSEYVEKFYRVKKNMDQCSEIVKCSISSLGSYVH
In words: Crosslinking/co-immunoprecipitation/mass spectrometry (TMT quantitative proteomics) to identify irisin receptors. The settings on record: co-precipitated protein Rad50 (RAD50_MOUSE). Format: binding. The essentials:
(§1)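 Mouse MLO-Y4 cells were switched to serum-free FreeStyle medium for 4 h, chilled, then exposed to 10 nM His-tagged irisin (or adipsin as control) for 20 min. Cells were crosslinked with 1.5 mM DTSSP (30 min, ice), and bound proteins were pulled down on Ni-NTA and eluted with 250 mM imidazole. Eluates were separated by SDS-PAGE, trypsin-digested in gel, TMT 6-plex labelled and quantified by MS3-based LC-MS/MS on an Orbitrap Fusion Lumos.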

Assay [2] has as its target T2, MLO-Y4 cell surface proteins (Mus musculus, UniProt Q6ZQ93).
T2 construct: endogenous in cells; host or cells: MLO-Y4
Described as above. Format: binding. Particulars: co-precipitated protein Usp34 (UBP34_MOUSE). In a few lines: as §1

T2 sequence (Q6ZQ93 whole entry): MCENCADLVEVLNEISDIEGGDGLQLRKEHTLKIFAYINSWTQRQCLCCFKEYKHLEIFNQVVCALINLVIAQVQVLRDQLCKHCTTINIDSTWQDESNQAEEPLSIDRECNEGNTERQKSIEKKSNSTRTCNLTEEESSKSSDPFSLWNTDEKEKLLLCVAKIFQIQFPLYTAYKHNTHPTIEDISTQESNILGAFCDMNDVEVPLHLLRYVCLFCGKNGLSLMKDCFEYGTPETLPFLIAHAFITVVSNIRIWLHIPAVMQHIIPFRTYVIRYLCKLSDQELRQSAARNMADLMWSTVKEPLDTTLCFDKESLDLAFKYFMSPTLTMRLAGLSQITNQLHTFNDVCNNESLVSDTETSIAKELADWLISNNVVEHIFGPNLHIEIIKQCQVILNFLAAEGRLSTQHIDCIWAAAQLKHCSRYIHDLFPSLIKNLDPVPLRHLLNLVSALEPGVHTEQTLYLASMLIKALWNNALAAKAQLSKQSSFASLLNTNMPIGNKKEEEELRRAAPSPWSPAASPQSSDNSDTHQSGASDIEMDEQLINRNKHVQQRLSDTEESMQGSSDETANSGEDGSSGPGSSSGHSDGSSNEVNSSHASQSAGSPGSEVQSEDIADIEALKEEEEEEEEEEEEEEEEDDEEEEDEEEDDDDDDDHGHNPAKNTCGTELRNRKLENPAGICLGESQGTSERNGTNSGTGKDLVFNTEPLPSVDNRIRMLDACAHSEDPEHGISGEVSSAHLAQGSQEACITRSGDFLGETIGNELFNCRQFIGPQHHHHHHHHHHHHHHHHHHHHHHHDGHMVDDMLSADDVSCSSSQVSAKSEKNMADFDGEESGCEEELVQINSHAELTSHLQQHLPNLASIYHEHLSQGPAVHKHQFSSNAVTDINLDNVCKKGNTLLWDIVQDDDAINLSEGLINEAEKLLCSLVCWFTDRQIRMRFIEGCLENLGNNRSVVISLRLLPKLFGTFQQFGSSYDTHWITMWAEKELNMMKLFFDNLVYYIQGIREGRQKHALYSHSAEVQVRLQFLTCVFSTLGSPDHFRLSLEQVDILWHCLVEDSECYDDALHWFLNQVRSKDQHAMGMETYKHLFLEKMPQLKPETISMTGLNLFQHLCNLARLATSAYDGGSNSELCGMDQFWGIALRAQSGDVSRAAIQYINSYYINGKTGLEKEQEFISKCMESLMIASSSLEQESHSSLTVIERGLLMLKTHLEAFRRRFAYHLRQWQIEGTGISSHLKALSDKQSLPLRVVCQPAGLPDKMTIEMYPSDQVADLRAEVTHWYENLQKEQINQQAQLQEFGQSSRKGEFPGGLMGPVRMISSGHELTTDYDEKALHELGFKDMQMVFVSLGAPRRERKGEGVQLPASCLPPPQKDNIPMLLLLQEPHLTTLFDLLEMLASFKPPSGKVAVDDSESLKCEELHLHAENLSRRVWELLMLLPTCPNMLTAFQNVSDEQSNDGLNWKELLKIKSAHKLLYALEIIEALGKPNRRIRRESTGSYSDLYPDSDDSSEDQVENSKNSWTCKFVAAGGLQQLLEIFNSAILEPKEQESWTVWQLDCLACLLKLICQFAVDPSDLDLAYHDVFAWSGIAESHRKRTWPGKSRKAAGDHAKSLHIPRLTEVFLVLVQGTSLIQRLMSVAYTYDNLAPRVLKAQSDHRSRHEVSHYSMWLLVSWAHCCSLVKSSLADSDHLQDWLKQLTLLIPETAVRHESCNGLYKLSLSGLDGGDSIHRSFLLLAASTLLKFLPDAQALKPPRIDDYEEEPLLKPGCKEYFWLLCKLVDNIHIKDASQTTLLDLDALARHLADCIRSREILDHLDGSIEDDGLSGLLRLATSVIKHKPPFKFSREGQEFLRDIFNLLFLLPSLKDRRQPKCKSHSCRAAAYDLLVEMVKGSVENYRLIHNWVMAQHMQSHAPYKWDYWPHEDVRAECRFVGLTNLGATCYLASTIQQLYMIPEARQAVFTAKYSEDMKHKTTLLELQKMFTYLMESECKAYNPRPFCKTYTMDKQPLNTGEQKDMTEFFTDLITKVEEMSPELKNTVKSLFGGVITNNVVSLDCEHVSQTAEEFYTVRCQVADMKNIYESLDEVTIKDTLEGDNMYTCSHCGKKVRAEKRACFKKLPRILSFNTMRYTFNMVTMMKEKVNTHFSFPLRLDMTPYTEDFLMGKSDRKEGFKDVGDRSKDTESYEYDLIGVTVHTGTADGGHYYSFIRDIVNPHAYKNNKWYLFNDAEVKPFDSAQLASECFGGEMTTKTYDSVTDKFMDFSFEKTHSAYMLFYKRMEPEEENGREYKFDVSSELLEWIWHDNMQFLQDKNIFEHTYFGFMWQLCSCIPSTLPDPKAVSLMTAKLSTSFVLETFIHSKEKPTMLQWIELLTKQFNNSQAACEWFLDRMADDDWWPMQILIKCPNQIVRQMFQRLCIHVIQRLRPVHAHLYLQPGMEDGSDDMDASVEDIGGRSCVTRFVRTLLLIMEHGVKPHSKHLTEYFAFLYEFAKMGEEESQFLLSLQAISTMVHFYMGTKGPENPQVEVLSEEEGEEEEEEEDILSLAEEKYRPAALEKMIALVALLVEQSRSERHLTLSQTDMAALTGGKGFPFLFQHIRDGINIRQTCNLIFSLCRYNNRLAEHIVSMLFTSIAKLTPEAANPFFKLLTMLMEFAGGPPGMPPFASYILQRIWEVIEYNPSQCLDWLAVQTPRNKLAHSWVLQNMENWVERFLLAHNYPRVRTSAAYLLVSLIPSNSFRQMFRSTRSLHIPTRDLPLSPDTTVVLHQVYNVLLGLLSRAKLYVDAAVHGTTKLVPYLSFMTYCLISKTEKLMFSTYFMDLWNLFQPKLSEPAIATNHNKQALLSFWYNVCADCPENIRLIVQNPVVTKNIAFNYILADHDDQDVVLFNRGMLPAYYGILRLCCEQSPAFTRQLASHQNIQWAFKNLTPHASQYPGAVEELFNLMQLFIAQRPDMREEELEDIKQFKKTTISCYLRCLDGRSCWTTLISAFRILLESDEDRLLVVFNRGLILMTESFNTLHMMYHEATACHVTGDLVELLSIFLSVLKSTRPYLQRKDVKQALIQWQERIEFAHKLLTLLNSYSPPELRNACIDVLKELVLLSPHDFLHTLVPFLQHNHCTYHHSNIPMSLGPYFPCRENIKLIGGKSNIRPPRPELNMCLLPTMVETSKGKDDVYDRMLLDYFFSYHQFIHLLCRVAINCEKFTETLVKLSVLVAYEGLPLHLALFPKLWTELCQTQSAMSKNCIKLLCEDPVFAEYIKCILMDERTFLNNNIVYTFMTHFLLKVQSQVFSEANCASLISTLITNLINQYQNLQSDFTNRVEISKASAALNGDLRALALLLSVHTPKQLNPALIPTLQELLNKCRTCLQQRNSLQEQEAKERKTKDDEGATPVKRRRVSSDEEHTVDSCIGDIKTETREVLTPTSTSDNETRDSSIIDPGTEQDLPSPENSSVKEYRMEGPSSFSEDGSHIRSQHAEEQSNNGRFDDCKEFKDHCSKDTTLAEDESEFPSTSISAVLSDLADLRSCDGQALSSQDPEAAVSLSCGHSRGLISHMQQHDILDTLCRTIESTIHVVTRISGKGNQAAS

B1: irisin: secreted cleaved form of FNDC5; recombinant human/mouse irisin with C-terminal his tag produced in HEK293 cells (protein)
chain: DSPSAPVNVTVRHLKANSAVVSWDVLEDEVVIGFAISQQKKDVRMLRFIQEVNTTTRSCALWDLEEDTEYIVHVQAISIQGQSPASEPVLFKTPREAEKMASKNKDEVTMKE
modifications: left off: small tags and cut ends
notes: secreted cleaved form of FNDC5; recombinant human/mouse irisin with C-terminal his tag produced in HEK293 cells
On to B1, for which, in assay [1], the TMT signal-to-noise ratio worked out at 10.8209 and the “irisin/adipsin TMT signal-to-noise ratio” value is 0.026. In assay [2], the TMT signal-to-noise ratio is 98.0506 and the “irisin/adipsin TMT signal-to-noise ratio” value is 0.094.
